# ± gives the uncertainty stated by the source.
# B1: V(D)J recombination-activating protein 2, residues 415 to 491; numbered along this chain, P55895 (parent)
# chain: YWITCCPTCDVDINTWVPFYSTELNKPAMIYCSHGDGHWVHAQCMDLAERTLIHLSAGSNKYYCNEHVEIARALHTP
# Variants of: B1
# Assay: abundance fitness (aPCA) (normalised: wild type 0, dead -1); higher = more abundant; growth selection in yeast, the domain comes from the species named
# Settings: Homo sapiens
row,Variant,abundance fitness
1,YWITCCPTCDVDINTWVPFYSTELNKPAMIYCSHGDGHWVHAQCMDLAERTLIHLSAGSNKYYLNEHVEIARALHTP [C64L],-1.07 ± 0.2
2,YWITCCPTCDVDINTWVPFYSTELNKPAMIYCSHGDGHWVHAQCMDLAERTLIHLSAGSNKYYCNPHVEIARALHTP [E66P],-0.231 ± 0.08
3,YWITCCPTCDVDINTWVPFYSTELNKPAMIYCSHGDGHWVHAQCMDLAERTLIHLSAGSNKYYCNWHVEIARALHTP [E66W],-0.192 ± 0.078
4,YWITCCPTCDVDINTWVPFYSTELNKPAMIYCSHGDGHWVHAQCMDLAERTLIHLSAGSNKYYCNFHVEIARALHTP [E66F],-0.193 ± 0.22
5,YWITCCSTCDVDINTWVPFYSTELNKPAMIYCSHGDGHWVHAQCMDLAERTLIHLSAGSNKYYCNEHVEIARALHTP [P7S],0.075 ± 0.41
6,YWITCCPTCDVDINTWVPFYSTELNKPAMIYCSHQDGHWVHAQCMDLAERTLIHLSAGSNKYYCNEHVEIARALHTP [G35Q],-0.17 ± 0.12
7,YWITCCPTCDVDINTWVPFYSTELNKPAMIYCSHGDGHWVHAQCMDLAERTLIHLSADSNKYYCNEHVEIARALHTP [G58D],0.016 ± 0.096
8,YWITCCPTCDVDINTWVPFYSTELNKPAMIYCSHGDGHWVHAQCMDLAERTLIHLSATSNKYYCNEHVEIARALHTP [G58T],-0.199 ± 0.085
9,YWITCCPTCDVDINTWVPFYSTELNKPAMIYCSHGDGHWVHAQCMDLAERTLIHLSTGSNKYYCNEHVEIARALHTP [A57T],-0.121 ± 0.12
10,YWWTCCPTCDVDINTWVPFYSTELNKPAMIYCSHGDGHWVHAQCMDLAERTLIHLSAGSNKYYCNEHVEIARALHTP [I3W],-0.159 ± 0.068
11,YWLTCCPTCDVDINTWVPFYSTELNKPAMIYCSHGDGHWVHAQCMDLAERTLIHLSAGSNKYYCNEHVEIARALHTP [I3L],-0.112 ± 0.042
12,YWITCCPTCDVDINTWVPFYSTELNKPAMIYCSHGDGHWVHAQCMDLAERTLIHLSAGSNKYYCNEHVEIARALPTP [H75P],-0.111 ± 0.063
13,YWITCCPTCDVDINTWVPFYSTELNFPAMIYCSHGDGHWVHAQCMDLAERTLIHLSAGSNKYYCNEHVEIARALHTP [K26F],-0.116 ± 0.22
14,YWITCCPTCDVDINTWVPFYSTELNKCAMIYCSHGDGHWVHAQCMDLAERTLIHLSAGSNKYYCNEHVEIARALHTP [P27C],-0.938 ± 0.32
15,YMITCCPTCDVDINTWVPFYSTELNKPAMIYCSHGDGHWVHAQCMDLAERTLIHLSAGSNKYYCNEHVEIARALHTP [W2M],-0.226 ± 0.052
16,YWITCCPTCDVDINTWVPFYSTELNKPCMIYCSHGDGHWVHAQCMDLAERTLIHLSAGSNKYYCNEHVEIARALHTP [A28C],-0.117 ± 0.2
17,YWITCCPTCSVDINTWVPFYSTELNKPAMIYCSHGDGHWVHAQCMDLAERTLIHLSAGSNKYYCNEHVEIARALHTP [D10S],-0.114 ± 0.21
18,YWITCCPTCDVDINTWVPFYSTELNKPAMIYCSHGDGHWVHAQCMDDAERTLIHLSAGSNKYYCNEHVEIARALHTP [L47D],-0.571 ± 0.13

row,Variant,abundance fitness
1,YWITCCPTCDVDINTWVPFYSTELNKPAMIYCSHGDGHWVHAECMDLAERTLIHLSAGSNKYYCNEHVEIARALHTP [Q43E],-0.344 ± 0.25
2,YWITCCPTCDVDINTWVPFYSKELNKPAMIYCSHGDGHWVHAQCMDLAERTLIHLSAGSNKYYCNEHVEIARALHTP [T22K],0.052 ± 0.19
3,YWITCCPTCDVDINTWVPFYSCELNKPAMIYCSHGDGHWVHAQCMDLAERTLIHLSAGSNKYYCNEHVEIARALHTP [T22C],-0.131 ± 0.34
4,YWITCCPTCDVMINTWVPFYSTELNKPAMIYCSHGDGHWVHAQCMDLAERTLIHLSAGSNKYYCNEHVEIARALHTP [D12M],0.009 ± 0.14
5,YWITCCPTCDVDINTWVPFYSTELNKPAMIYCSHGDGHWVHAQCMDLAEATLIHLSAGSNKYYCNEHVEIARALHTP [R50A],0.094 ± 0.066
6,YWITCCPTCDVDINTWVPFYSTELNKPAMIYCSHGDGHWVHAQCMDLAEQTLIHLSAGSNKYYCNEHVEIARALHTP [R50Q],-0.032 ± 0.1
7,YWITCCPTCDVDINTWVPFYSTELNKPAMIYCSHGDGHWVHAQCMDLAERTLIMLSAGSNKYYCNEHVEIARALHTP [H54M],-0.087 ± 0.12
8,YWITCCPTCDVDINTWVPFYSTELNKPAMIYCSHGDGHWVHAQCMDLAERTLITLSAGSNKYYCNEHVEIARALHTP [H54T],-0.12 ± 0.083
9,YWITCCPTCDVDINTWVPFYSTELNKPAMIYCSHGDGHWVHAQCMDLAERTLIHLSAGHNKYYCNEHVEIARALHTP [S59H],-0.043 ± 0.21
10,YWITCCPTCDVDINTRVPFYSTELNKPAMIYCSHGDGHWVHAQCMDLAERTLIHLSAGSNKYYCNEHVEIARALHTP [W16R],-0.35 ± 0.16
11,YWITCCPTCDVDINTIVPFYSTELNKPAMIYCSHGDGHWVHAQCMDLAERTLIHLSAGSNKYYCNEHVEIARALHTP [W16I],-0.12 ± 0.26
12,YWITCCPTCDVDINTPVPFYSTELNKPAMIYCSHGDGHWVHAQCMDLAERTLIHLSAGSNKYYCNEHVEIARALHTP [W16P],-0.471 ± 0.41
13,YWITCCPTCDVDINTWVPFYSTELNKPAMIYCSHGDGHWVHAQCMDLAERTLIHLSAGSNKYYCNEHVEIARALHCP [T76C],-0.416 ± 0.18
14,YWITCCPTCDVDINTWVPFYSTELNKPAMIYCSHGDGHWVHAQFMDLAERTLIHLSAGSNKYYCNEHVEIARALHTP [C44F],-0.952 ± 0.31
15,YWITCCPTCDVDINTWVSFYSTELNKPAMIYCSHGDGHWVHAQCMDLAERTLIHLSAGSNKYYCNEHVEIARALHTP [P18S],-0.344 ± 0.17
16,YWITCCPTCDVDINTWVPFYSTELNKPAMIYCSHGDGHWVHAQCNDLAERTLIHLSAGSNKYYCNEHVEIARALHTP [M45N],-0.016 ± 0.18
17,YWITCCPTCDVDINTWVPFYSTELNKPAMIYCSHGDGHWVHAQCEDLAERTLIHLSAGSNKYYCNEHVEIARALHTP [M45E],-0.265 ± 0.13
18,YWITCCPTCDVDINTWVPFYSTELNKPAMIYCSHGDGHWVHAQCMDLAFRTLIHLSAGSNKYYCNEHVEIARALHTP [E49F],-0.149 ± 0.093
